{"source": "patent US20250313605A1", "target": "human GIP receptor (human) (UniProt P48546)", "sequence (P48546 22-466)": "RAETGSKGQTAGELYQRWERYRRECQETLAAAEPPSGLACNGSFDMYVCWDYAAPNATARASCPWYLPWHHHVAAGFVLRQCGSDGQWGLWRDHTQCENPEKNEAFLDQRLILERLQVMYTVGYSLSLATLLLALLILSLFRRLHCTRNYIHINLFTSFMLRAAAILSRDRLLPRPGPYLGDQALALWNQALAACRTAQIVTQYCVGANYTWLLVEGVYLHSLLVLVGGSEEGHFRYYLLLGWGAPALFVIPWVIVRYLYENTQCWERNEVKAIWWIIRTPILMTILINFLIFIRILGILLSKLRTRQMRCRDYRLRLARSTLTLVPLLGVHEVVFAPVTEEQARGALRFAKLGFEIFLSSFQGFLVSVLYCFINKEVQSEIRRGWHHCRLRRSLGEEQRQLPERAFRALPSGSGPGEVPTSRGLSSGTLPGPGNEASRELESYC", "assay": "cell-based or functional assay", "data": [{"substance": "human GIP (1-42)NH2 (from UniProt P09681 52-93) (ligand)", "values": [{"measurement": "cAMP EC50 (0.1% casein)", "value": 154, "unit": "pM"}, {"measurement": "cAMP EC50 (FBS and BSA present)", "value": 133, "unit": "pM"}]}]}
